Data reported in US10660939.
Positions of bridges follow the written chain, without caps; N, C: chain ends. Non-standard residues stand in square brackets, D forms with d. Dab = NCC[C@H](N)C(=O)O

Experiments:
[1] = biological target: human melanocortin receptor-4 (human) (UniProt P32245); experiment: competition with [I125]-NDP-α-MSH, hMC4r HEK-293 membranes
[2] = biological target: human melanocortin receptor-4 (human) (UniProt P32245); experiment: cell-based or functional assay
[3] = biological target: human melanocortin receptor-4 (human) (UniProt P32245); experiment: competition with Eu-NDP-α-MSH, hMC4r HEK-293 membranes
[4] = biological target: human melanocortin receptor-4 (human), P32245; experiment: competition with [I125]-NDP-α-MSH, hMC4r HEK-293 membranes; details: remark: other sources report otherwise
Chain of human melanocortin receptor-4 (human), P32245 (P32245 whole entry): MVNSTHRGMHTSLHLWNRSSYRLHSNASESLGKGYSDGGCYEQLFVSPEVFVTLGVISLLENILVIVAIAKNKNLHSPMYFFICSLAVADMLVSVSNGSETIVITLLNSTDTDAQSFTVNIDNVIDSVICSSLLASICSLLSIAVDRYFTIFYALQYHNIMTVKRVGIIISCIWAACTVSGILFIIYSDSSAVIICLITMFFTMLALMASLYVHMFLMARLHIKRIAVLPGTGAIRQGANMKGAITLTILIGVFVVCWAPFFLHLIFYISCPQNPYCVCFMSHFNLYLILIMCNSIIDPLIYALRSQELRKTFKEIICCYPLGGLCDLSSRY

Chain of human melanocortin receptor-4 (human) (P32245 whole entry): as above

| Ki [1] | EC50 (cAMP) [2] | intrinsic activity (cAMP, NDP-α-MSH is 100%) [2] | Ki [3] | Ki [4] | Binder |
| --- | --- | --- | --- | --- | --- |
| 35 nM | – | – | – | – | RXXFRWX (N-terminal Ac; Dab 2 (X); Dab 3 (X); D-Phe 4; hGlu 7 (X); cyclo(Dab 2-hGlu 7); C-terminal OH) [Peptide No. 136] |
| – | 0.06 nM | 98% | 2 nM | – | RXXFRWX (N-terminal Ac; hGlu 2 (X); Dab 3 (X); D-Phe 4; Dab 7 (X); cyclo(hGlu 2-Dab 7); C-terminal NH2) [Peptide No. 127] |
| – | – | – | – | 57 nM | Ac-RD[Dab][dF]RWK-OH (lactam 2-7) [Peptide No. 164] |
| – | 0.065 nM | 96% | 4 nM | – | RXXFRWX (N-terminal Ac; Dab 2 (X); Dab 3 (X); D-Phe 4; hGlu 7 (X); cyclo(Dab 2-hGlu 7); C-terminal NH2) [Peptide No. 129] |
| 45 nM | – | – | – | – | RXXFRWX (N-terminal Ac; hGlu 2 (X); Dab 3 (X); D-Phe 4; Dab 7 (X); cyclo(hGlu 2-Dab 7); C-terminal OH) [Peptide No. 144] |
| – | – | – | – | 4 nM | Ac-RD[Dab][dF]RWK-NH2 (lactam 2-7) [Peptide No. 163] |
